What was measured:
[1] = biological target: T1, CALRins5 (mutant calreticulin, 5 base pair insertion, Type 2) expressed with MPL on engineered cancer cells (UniProt P27797 18-417); experiment: flow cytometry on ELF-153 MPL CALRins5 cells, 1 h at 37 C, AF647 secondary antibody, Geometric mean
T1 construct: whole, on cells; On the cell surface in complex with MPL; also called OCI-M2 MPL CALRins5
T1 sequence (looked up): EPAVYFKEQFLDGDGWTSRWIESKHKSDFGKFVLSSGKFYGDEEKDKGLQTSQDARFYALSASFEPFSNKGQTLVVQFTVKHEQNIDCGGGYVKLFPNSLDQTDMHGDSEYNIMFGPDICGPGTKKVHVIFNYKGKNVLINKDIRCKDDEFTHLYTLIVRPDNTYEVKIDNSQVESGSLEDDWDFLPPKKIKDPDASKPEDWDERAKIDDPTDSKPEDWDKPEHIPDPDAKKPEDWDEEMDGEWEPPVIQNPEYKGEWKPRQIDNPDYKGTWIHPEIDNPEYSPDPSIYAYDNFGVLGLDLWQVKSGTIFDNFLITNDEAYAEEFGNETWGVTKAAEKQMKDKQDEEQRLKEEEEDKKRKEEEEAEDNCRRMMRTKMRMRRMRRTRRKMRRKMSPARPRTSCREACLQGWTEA
Protocol: (§1) FIGS. 27A-27F depict binding of different CALRmutxCD3 antibodies to CALRmut-negative or CALRmut-positive cells. Flow cytometry was used to evaluate CALRmutxCD3 binding to CALRmut-negative and CALRmut-positive cancer cells in vitro. CALRmutxCD3 antibodies were tested on a panel of cell lines, engineered to express MPL and CALRmut, after 1 hour 37° C. incubation, with subsequent incubation with secondary AF647-labeled antibody. Geometric mean fluorescence intensity of AF647 was measured to determine antibody binding.

[2] = biological target: T2, wild-type calreticulin (CALRwt) expressed with MPL in engineered cancer cells (UniProt P27797 18-417, limits assumed); experiment: flow cytometry on OCI-M2 MPL CALRwt cells, 1 h at 37 C, AF647 secondary antibody, Geometric mean
T2 construct: whole, on cells; also called OCI-M2 MPL CALRwt
T2 sequence (looked up): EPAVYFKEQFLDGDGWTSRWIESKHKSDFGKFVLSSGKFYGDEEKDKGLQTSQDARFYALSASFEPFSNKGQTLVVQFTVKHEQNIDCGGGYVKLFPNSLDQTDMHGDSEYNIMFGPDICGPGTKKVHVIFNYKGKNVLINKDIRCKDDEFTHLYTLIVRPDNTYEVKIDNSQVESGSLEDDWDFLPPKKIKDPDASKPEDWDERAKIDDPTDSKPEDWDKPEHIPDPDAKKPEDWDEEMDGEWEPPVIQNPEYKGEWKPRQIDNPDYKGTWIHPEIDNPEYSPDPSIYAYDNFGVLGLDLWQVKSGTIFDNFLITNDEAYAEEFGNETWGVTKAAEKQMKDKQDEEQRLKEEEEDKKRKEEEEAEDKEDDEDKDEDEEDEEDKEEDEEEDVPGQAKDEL
Protocol: as §1

- EC50 (read off the curve) [1]: ~1 nM
- binding result [2]: no binding (tested: 100 nM)
B1: C3CRB137 CALRmut x CD3 bispecific antibody (bispecific antibody, human IgG1, kappa, L234A L235A)
scFv: DIQMTQSPSSLSASVGDRVTITCRARQSIGTAIHWYQQKPGCAPKLLIKYASESISGVPSRFSGSGSGTDFTLTISSLQPEDFATYYCQQSGSWPYTFGQGTKLEIKGGGSGGSGGCPPCGGSGGEVQLVESGGGLVKPGGSLRLSCAASGFTFSRYNMNWVRQAPGKGLEWVSSISTSSNYIYYADSVKGRFTFSRDNAKNSLDLQMSGLRAEDTAIYYCTRGWGPFDYWGCGTLVTVSSEPKSSDKTHTCPPCPAPEAAGGPSVFLFPPKPKDTLMISRTPEVTCVVVSVSHEDPEVKFNWYVDGVEVHNAKTKPREEQYNSTYRVVSVLTVLHQDWLNGKEYKCKVSNKALPAPIEKTISKAKGQPREPQVYTLPPSREEMTKNQVSLWCLVKGFYPSDIAVEWESNGQPENNYKTTPPVLDSDGSFFLYSKLTVDKSRWQQGNVFSCSVMHEALHNHYTQKSLSLSPGK
heavy: EVQLLESGGGLVQPGGSLRLSCAVSGIDLSNNAISWVRQAPGKGLEYVGVIGNTGDTYYADSAKGRFTISRDSSKTTLYLQMNSLRAEDTAVYFCVRGPPSYSSSVKNIWGQGTLVTVSSASTKGPSVFPLAPSSKSTSGGTAALGCLVKDYFPEPVTVSWNSGALTSGVHTFPAVLQSSGLYSLSSVVTVPSSSLGTQTYICNVNHKPSNTKVDKKVEPKSCGGGGSGGGGSEVQLLESGGGLVQPGGSLRLSCAVSGIDLSNNAISWVRQAPGKGLEYVGVIGNTGDTYYADSAKGRFTISRDSSKTTLYLQMNSLRAEDTAVYFCVRGPPSYSSSVKNIWGQGTLVTVSSASTKGPSVFPLAPSSKSTSGGTAALGCLVKDYFPEPVTVSWNSGALTSGVHTFPAVLQSSGLYSLSSVVTVPSSSLGTQTYICNVNHKPSNTKVDKKVEPKSCDKTHTCPPCPAPEAAGGPSVFLFPPKPKDTLMISRTPEVTCVVVSVSHEDPEVKFNWYVDGVEVHNAKTKPREEQYNSTYRVVSVLTVLHQDWLNGKEYKCKVSNKALPAPIEKTISKAKGQPREPQVYTLPPSREEMTKNQVSLSCAVKGFYPSDIAVEWESNGQPENNYKTTPPVLDSDGSFFLVSKLTVDKSRWQQGNVFSCSVMHEALHNRFTQKSLSLSPGK
light: DIQMTQSPSSVSASVGDRVTITCQSSQSVYNNNWLSWLQQKPGKAPKRLIYDASKLESGVPSRFSGSGSGTDFTLTISSVQPEDAATYYCAGGFTGNVYTFGGGTKVEIKRTVAAPSVFIFPPSDEQLKSGTASVVCLLNNFYPREAKVQWKVDNALQSGNSQESVTEQDSKDSTYSLSSTLTLSKADYEKHKVYACEVTHQGLSSPVTKSFNRGEC
notes: Chain B heavy: two CALRB421 Fab heavy parts in tandem, Fc

— patent publication US20260125457A1 (Janssen / Centocor, published 2026)
